Assay results reported in patent US20240131158A1 (Takeda / Millennium, published 2024).

T1: mouse recombinant TGFbR2-Fc protein (mouse, UniProt Q62312-1 24-184, limits assumed)
T1 construct: also called mouse TGFbR2; not shown: Fc part of the fusion protein
T1 sequence (looked up): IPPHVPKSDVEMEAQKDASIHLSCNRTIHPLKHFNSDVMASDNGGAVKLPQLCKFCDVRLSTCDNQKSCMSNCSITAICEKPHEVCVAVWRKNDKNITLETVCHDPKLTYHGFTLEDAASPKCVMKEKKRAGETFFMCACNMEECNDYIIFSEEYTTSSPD


How the values were obtained:
[1] = biological target: T2, hTGFβR2-Fc (human, UniProt P37173 23-159); test: ELISA, plate coated with hTGFβR2-Fc, human CAR-T supernatant, anti-flag HRP detection
T2 construct: Bought (RnD Systems); also called TGFbR2-Fc; human recombinant TGFbR2-Fc protein; not shown: Fc part of the bought fusion protein
Experimental: (§1) Supernatant from TGF-β modulating CAR-T cells were assayed by ELISA to detect anti-TGF-β and anti-TGFβR2 antibodies. Maxisorp 96 well plates were coated with recombinant human TGF-β […] or hTGFβR2-Fc (0.1 mg/ml; RnD System) in 100 μl coating buffer overnight at 4° C. Plates were washed with 1× wash buffer and blocked for 1 hour with reagent diluent at room temperature. CAR-T supernatant, recombinant TGFβR2-flag, or recombinant TGF-3-flag antibody was added and incubated for 2 hours at room temperature.
(§2) After another washing step, HRP-conjugated flag-tag antibody was added and incubated for 30 minutes at room temperature. Plates were washed and TMB substrate was added for 10-20 minutes. The reaction was stopped using Stop reagent and plates were read at 450 nm using a Pherastar Plate reader. ELISA using coated TGF-b detected high levels of TGF-b scFv VH-VL1 and TGF-b scFv VH-VL2 as compared to TGF-b scFv VL-VH using anti-flag tag HRP antibodies for binder detection (FIG. 3A). ELISA using coated TGFbR2-Fc detected high levels of TGFbR2 scFv VH-VL, TGFbR2 scFv VL-VH and hTGFbR2 VH1 from human CAR-T but was unable to detect mTGFbR2 VH1 (FIG. 3B). TGF-β binders and TGFβR2 binders were secreted by TGF-β modulating CAR-T cells and bind to their cognate antigen.

[2] = biological target: T1, mouse recombinant TGFbR2-Fc protein; test: ELISA, mouse recombinant TGFbR2-Fc as capture, mouse CAR-T supernatant, anti-flag HRP detection
Experimental: as §1, §2
Supernatant was harvested two days after transduction and frozen at −80′C until used for ELISA. ELISA was performed as described in Example 3. Human recombinant TGFbR2-Fc protein was used for capturing binders against human TGFbR2 and mouse recombinant TGFbR2-Fc protein was used for probing binding of TGFbR2 binders to mouse TGFbR2. Binding was detected using anti-flag HRP antibodies and the respective substrate. […] None of the binders from the tested supernatants bound to mouse TGFbR2 confirming specificity for human TGFBR2.

[3] = biological target: T2, hTGFβR2-Fc; test: ELISA (figure legend)
Experimental: as §1
as §2, with “TGF-β binders and TGFβR2 binders were secreted by TGF-β modulating CAR-T cells and bind to their cognate antigen.” left out
(§3) Supernatant was harvested two days after transduction and frozen at −80′C until used for ELISA. […] Binding was detected using anti-flag HRP antibodies and the respective substrate. […]

[4] = biological target: T2, hTGFβR2-Fc; test: ELISA, human recombinant TGFbR2-Fc as capture, mouse CAR-T supernatant, anti-flag HRP detection
Experimental: as §1
as §2, with “TGF-β binders and TGFβR2 binders were secreted by TGF-β modulating CAR-T cells and bind to their cognate antigen.” left out
as §3

[5] = biological target: T2, hTGFβR2-Fc; test: ELISA, plate coated with hTGFβR2-Fc, CAR-T supernatant, anti-flag HRP detection
Experimental: as §1, §2

T2 sequence (P37173 23-159 limits assumed): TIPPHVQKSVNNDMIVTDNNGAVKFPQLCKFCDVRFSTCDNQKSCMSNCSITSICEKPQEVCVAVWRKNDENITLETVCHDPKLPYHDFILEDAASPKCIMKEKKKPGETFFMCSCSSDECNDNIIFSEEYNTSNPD

Binder	binding result [2]	also measured
TGFbR2 scFv VL-VH (scFv, Secreted into CAR-T cell supernatant; Detected with anti-flag HRP) scFv: EIVLTQSPATLSLSPGERATLSCRASQSVRSYLAWYQQKPGQAPRLLIYDASNRATGIPARFSGSGSGTDFTLTISSLEPEDFAVYYCQQRSNWPPTFGQGTKVEIKGGGGSGGGGSGGGGSQLQVQESGPGLVKPSETLSLTCTVSGGSISNSYFSWGWIRQPPGKGLEWIGSFYYGEKTYYNPSLKSRATISIDTSKSQFSLKLSSVTAADTAVYYCPRGPTMIRGVIDSWGQGTLVTVSS	–	binding result [1]: binds
hTGFbR2 VH2 G4S dimer (VHH, Flag-tagged; also called hTGFbR2-VH2 dimer) EVQLLESGGGLVQPGGSLRLSCAASGSTFTEYRMWWVRQAPGKGLEWVSAIEPIGHRTYYANSVRGRFTISRDNSKNTLYLQMNSLRAEDTAVYYCAKQAPGEKWARRWDLDYWGQGTLVTVSSGGGGSEVQLLESGGGLVQPGGSLRLSCAASGSTFTEYRMWWVRQAPGKGLEWVSAIEPIGHRTYYANSVRGRFTISRDNSKNTLYLQMNSLRAEDTAVYYCAKQAPGEKWARRWDLDYWGQGTLVTVSS	no binding	–
hTGFbR2 VH1 (VHH, Single domain VH; Secreted into CAR-T cell supernatant; Detected with anti-flag HRP) VHH: EVQLLESGGGLVQPGGSLRLSCAASGFTFGTEQMWWVRQAPGKGLEFVSRIDSPGGRTYYADSVKGRFTISRDNSKNTLYLQMNSLRAEDTAVYYCAKRRPTGVSGTFYDYWGQGTLVTVSS	–	binding result [1]: binds
hTGFbR2 VH3 monomer (VHH, Flag-tagged) VHH: EVQLLESGGGLVQPGGSLRLSCAASGFTFGTDQMWWVRQAPGKGLEFVSRIDSPGGRTYYANSVKGRFTISRDNSKNTLYLQMNSLRAEDTAVYYCAKRQPAGVSGKYVDYWGQGTLVTVSS	no binding	binding result [3]: binds
hTGFbR2 VH2 monomer (VHH, Flag-tagged (anti-flag HRP detection); also called TGFbR2 hVH2) VHH: EVQLLESGGGLVQPGGSLRLSCAASGSTFTEYRMWWVRQAPGKGLEWVSAIEPIGHRTYYANSVRGRFTISRDNSKNTLYLQMNSLRAEDTAVYYCAKQAPGEKWARRWDLDYWGQGTLVTVSS	no binding	binding result [3]: binds
TGFbR2 scFv VH-VL (scFv, Secreted into CAR-T cell supernatant; Detected with anti-flag HRP; also called hTGFbR2 scFv VH-VL monomer; TGFbR2 scFv VH-VL monomer) scFv: QLQVQESGPGLVKPSETLSLTCTVSGGSISNSYFSWGWIRQPPGKGLEWIGSFYYGEKTYYNPSLKSRATISIDTSKSQFSLKLSSVTAADTAVYYCPRGPTMIRGVIDSWGQGTLVTVSSGGGGSGGGGSGGGGSEIVLTQSPATLSLSPGERATLSCRASQSVRSYLAWYQQKPGQAPRLLIYDASNRATGIPARFSGSGSGTDFTLTISSLEPEDFAVYYCQQRSNWPPTFGQGTKVEIK	no binding	binding result [4]: binds
mTGFbR2 VH1 (VHH, Single domain VH expressed in human CAR-T cells; Flag-tagged) VHH: EVQLLESGGGLVQPGGSLRLSCAASGFTFTTYGMGWVRQAPGKGLEWVSWIEKTGNKTYYADSVKGRFTISRDNSKNTLYLQMNSLRAEDTAVYYCAKARHIKVRSRDFDYWGQGTLVTVSS	–	binding result [5]: no binding

Now from value to binder, other results behind:

binding result [2]	Binder	also measured
no binding	hTGFbR2 scFv VH-VL G4S dimer (scFv, Built here from its name (scFv - G4S - scFv); Flag-tagged; also called TGFbR2 scFv VH-VL dimer) QLQVQESGPGLVKPSETLSLTCTVSGGSISNSYFSWGWIRQPPGKGLEWIGSFYYGEKTYYNPSLKSRATISIDTSKSQFSLKLSSVTAADTAVYYCPRGPTMIRGVIDSWGQGTLVTVSSGGGGSGGGGSGGGGSEIVLTQSPATLSLSPGERATLSCRASQSVRSYLAWYQQKPGQAPRLLIYDASNRATGIPARFSGSGSGTDFTLTISSLEPEDFAVYYCQQRSNWPPTFGQGTKVEIKGGGGSQLQVQESGPGLVKPSETLSLTCTVSGGSISNSYFSWGWIRQPPGKGLEWIGSFYYGEKTYYNPSLKSRATISIDTSKSQFSLKLSSVTAADTAVYYCPRGPTMIRGVIDSWGQGTLVTVSSGGGGSGGGGSGGGGSEIVLTQSPATLSLSPGERATLSCRASQSVRSYLAWYQQKPGQAPRLLIYDASNRATGIPARFSGSGSGTDFTLTISSLEPEDFAVYYCQQRSNWPPTFGQGTKVEIK	–
no binding	hTGFbR2 VH3 G4S dimer (VHH, It is built here from its name (VH3 - G4S - VH3); Flag-tagged; also called hTGFbR2-VH3 dimer) EVQLLESGGGLVQPGGSLRLSCAASGFTFGTDQMWWVRQAPGKGLEFVSRIDSPGGRTYYANSVKGRFTISRDNSKNTLYLQMNSLRAEDTAVYYCAKRQPAGVSGKYVDYWGQGTLVTVSSGGGGSEVQLLESGGGLVQPGGSLRLSCAASGFTFGTDQMWWVRQAPGKGLEFVSRIDSPGGRTYYANSVKGRFTISRDNSKNTLYLQMNSLRAEDTAVYYCAKRQPAGVSGKYVDYWGQGTLVTVSS	–
